The record followed here is patent US20240034774A1 (Gilead, published 2024).

Positions count from the first letter of the chain named.

The labels stand for the following.
B1: 1.33.34-1 (antibody, human IgG1, kappa)
heavy: QVQLVQSGAEVKKPGASVRVSCKASGYNIRDYFIHWWRQAPGQGLQWVGWINPKTGQPNNPRQFQGRVTLTRHASWDFDTFSFYMDLKALRSDDTATYFCARQRSDYWDFDVWGSGTQVTVSSASTKGPSVFPLAPSSKSTSGGTAALGCLVKDYFPEPVTVSWNSGALTSGVHTFPAVLQSSGLYSLSSVVTVPSSSLGTQTYICNVNHKPSNTKVDKKVEPKSCDKTHTCPPCPAPELLAGPDVFLFPPKPKDTLMISRTPEVTCVVVDVSHEDPEVKFNWYVDGVEVHNAKTKPREEQYNSTYRVVSVLTVLHQDWLNGKEYKCKVSNKALPLPEEKTISKAKGQPREPQVYTLPPSREEMTKNQVSLTCLVKGFYPSDIAVEWESNGQPENNYKTTPPVLDSDGSFFLYSKLTVDKSRWQQGNVFSCSVLHEALHSHYTQKSLSLSPGK
light: DIQMTQSPSSLSASVGDTVTITCQANGYLNWYQQRRGKAPKLLIYDGSNLERGVPSRFSGRRWGQEYTLTISSLQPEDIATYFCQVYEFVTPGTRLDIKRTVAAPSVFIFPPSDEQLKSGTASVVCLLNNFYPREAKVQWKVDNALQSGNSQESVTEQDSKDSTYSLSSTLTLSKADYEKHKVYACEVTHQGLSSPVTKSFNRGEC
B2: 1.35.31-1 (antibody, human IgG1, kappa)
heavy: B1 heavy with I34M, L70M, K88S, A89R, S105T, S115Q, Q118M
light: B1 light with N49K, T91V, R95N, I98L
B3: 1.35.1-1 (antibody, human IgG1, kappa)
heavy: B1 heavy with I34M, L70M, K88S, A89R, S105T, S115Q, Q118M
light: B1 light with N49K, T68N, S72N, S73N, T91V, I98L
B4: 1.22.1-1 (antibody, human IgG1, kappa)
heavy: QVQLLQSGAAVTKPGASVRVSCEASGYNIRDYFIHWWRQAPGQGLQWVGWINPKTGQPNNPRQFQGRVSLTRHASTFSFYMDLKALRSDDTAVYFCARQRSDYWDFDVWGSGTQVTVSSASTKGPSVFPLAPSSKSTSGGTAALGCLVKDYFPEPVTVSWNSGALTSGVHTFPAVLQSSGLYSLSSVVTVPSSSLGTQTYICNVNHKPSNTKVDKKVEPKSCDKTHTCPPCPAPELLAGPDVFLFPPKPKDTLMISRTPEVTCVVVDVSHEDPEVKFNWYVDGVEVHNAKTKPREEQYNSTYRVVSVLTVLHQDWLNGKEYKCKVSNKALPLPEEKTISKAKGQPREPQVYTLPPSREEMTKNQVSLTCLVKGFYPSDIAVEWESNGQPENNYKTTPPVLDSDGSFFLYSKLTVDKSRWQQGNVFSCSVLHEALHSHYTQKSLSLSPGK
light: B1 light with N49K, T68N, S72N, S73N, T91V, I98L
B5: 1.2.2-1 (antibody, human IgG1)
heavy: B1 heavy with V5L, K23E, T69S, T97V, Q118M
VL: DIQMTQSPSSLSASVGDTVTITCQANGYLNWYQQKPGKAPKLLIYDGSKLERGVPSRFSGRRWGQEYNLTINNLQPEDIATYFCQVYEFVVPGTKVDIK
B6: 1v2-1 (antibody, human IgG1, kappa)
heavy: B1 heavy with V5L, E10A, K12T, K23E, T69S, F81Y, T97V
light: B1 light with N49K, T68N, S72N, S73N, T91V, I98L
B7: 1.34.31-1 (antibody, human IgG1, kappa)
heavy: B1 heavy with T97V, S105T
light: B1 light with N49K, T91V, R95N, I98L
B8: 1.34.34-1 (antibody, human IgG1, kappa)
heavy: B1 heavy with T97V, S105T
light: B1 light
B9: 1.34.32-1 (antibody, human IgG1, kappa)
heavy: B1 heavy with T97V, S105T
light: B1 light with N49K, I98L
B10: 1.34.33-1 (antibody, human IgG1, kappa)
heavy: B1 heavy with T97V, S105T
light: B1 light with T91V, R95N
B11: 1.34.1-1 (antibody, human IgG1, kappa)
heavy: B1 heavy with T97V, S105T
light: B1 light with N49K, T68N, S72N, S73N, T91V, I98L
B12: 1.1.2-1 (antibody, human IgG1)
heavy: B1 heavy with V5L, E10A, K12T, K23E, T69S, T97V
VL: B5 VL

The target of the first test is gp120 SHIV SF162 P3 (SHIV SF162 P3). The experiment in a line: single-point ELISA at EC50 conc. of A-1. Background: In an ELISA, binding on a coated surface is turned into a signal by an enzyme label.
Regarding B1, the “ELISA A450” value was 0.82 A450.

For B2, the “ELISA A450” value was 0.68 A450.

With B3, the “ELISA A450” value was determined as 0.8 A450.

On to B4, for which the “ELISA A450” value worked out at 0.78 A450.

On to B5, for which the “ELISA A450” value turned out to be 0.97 A450.

In the case of B6, the “ELISA A450” value worked out at 1.29 A450.

Consider B7, for which the “ELISA A450” value was determined as 0.77 A450.

With B8, the “ELISA A450” value amounted to 0.7 A450.

For the molecule B9, the “ELISA A450” value came out at 0.69 A450.

In the case of B10, the “ELISA A450” value came out at 0.82 A450.

On to B11, for which the “ELISA A450” value worked out at 0.79 A450.

For the molecule B12, the “ELISA A450” value is 1.01 A450.

The target of the next test is gp120 CAAN (HIV (CAAN)). Description: single-point ELISA at EC50 conc. of A-1.
For the molecule B1, the “ELISA A450” value turned out to be 0.95 A450.

Take B2: the “ELISA A450” value is 0.99 A450.

As for B3, the “ELISA A450” value was found to be 0.87 A450.

On to B4, for which the “ELISA A450” value came out at 0.87 A450.

Turning to B5, the “ELISA A450” value stood at 0.8 A450.

In the case of B6, the “ELISA A450” value came to 1 A450.

For the molecule B7, the “ELISA A450” value was 0.92 A450.

As to B8, the “ELISA A450” value came out at 0.88 A450.

As for B9, the “ELISA A450” value came to 0.97 A450.

With B10, the “ELISA A450” value stood at 1.04 A450.

Turning to B11, the “ELISA A450” value was 0.9 A450.

For the molecule B12, the “ELISA A450” value came to 0.93 A450.

In the next test the target is gp120 Bal (HIV (Bal)). Description: single-point ELISA at EC50 conc. of A-1.
B1: the “ELISA A450” value came to 0.95 A450.

Consider B2, for which the “ELISA A450” value stood at 1.05 A450.

For the molecule B3, the “ELISA A450” value was found to be 0.84 A450.

As to B4, the “ELISA A450” value worked out at 1.03 A450.

Consider B5, for which the “ELISA A450” value was 0.91 A450.

Regarding B6, the “ELISA A450” value came out at 1.03 A450.

For the molecule B7, the “ELISA A450” value was 0.91 A450.

Turning to B8, the “ELISA A450” value came out at 0.89 A450.

As for B9, the “ELISA A450” value was 0.93 A450.

For B10, the “ELISA A450” value amounted to 1.1 A450.

Regarding B11, the “ELISA A450” value was 0.83 A450.

With B12, the “ELISA A450” value stood at 0.95 A450.

A further test addresses BSA (UniProt P02769 25-607). The experiment in a line: single-point ELISA, BSA control.
For the molecule B1, the “ELISA A450” value is 0.06 A450.

On to B2, for which the “ELISA A450” value was determined as 0.07 A450.

For B3, the “ELISA A450” value was 0.07 A450.

For the molecule B4, the “ELISA A450” value came out at 0.06 A450.

For the molecule B5, the “ELISA A450” value is 0.06 A450.

Take B6: the “ELISA A450” value stood at 0.08 A450.

Take B7: the “ELISA A450” value was 0.06 A450.

Regarding B8, the “ELISA A450” value amounted to 0.06 A450.

Turning to B9, the “ELISA A450” value was 0.06 A450.

For the molecule B10, the “ELISA A450” value amounted to 0.06 A450.

Consider B11, for which the “ELISA A450” value amounted to 0.07 A450.

For the molecule B12, the “ELISA A450” value is 0.06 A450.
